Laboratory results as given in PMC2064162 (The Journal of Cell Biology, 2006).

Biological target: Sar1p (yeast, UniProt P20606 1-190)
Assay: pull-down

Chain of Sar1p (P20606 whole entry): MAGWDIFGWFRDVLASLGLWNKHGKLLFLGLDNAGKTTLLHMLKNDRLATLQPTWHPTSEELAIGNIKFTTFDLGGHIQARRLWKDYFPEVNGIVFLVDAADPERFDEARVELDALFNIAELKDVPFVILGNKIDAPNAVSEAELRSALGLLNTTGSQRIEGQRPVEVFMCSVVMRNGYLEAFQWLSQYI

- binding result: binds
Binder: MRRRSRC [GalNAcT2 cytoplasmic domain peptide (wild type, MRRRSRC)]
